The text below walks through data of article PMC10279719.

One assay has as its target 14-3-3γ 1-247 (UniProt P61981). The experiment in a line: SPR, immobilized 14-3-3γ. The note with it: reference: non-phosphorylated PEAK1tandem peptide; sites T1165. For orientation: SPR reads the build-up and loss of mass on a sensor chip optically.
Another assay addresses 14-3-3ε 1-255 (UniProt P62258). In words: SPR, immobilized 14-3-3ε.
The target of assay [1] is 14-3-3σ (Methods: 14-3-3ς, with an accession that is 14-3-3ζ) 1-245. The experiment in a line: SPR, immobilized 14-3-3σ.
In a further assay the target is 14-3-3η 1-246 (UniProt Q04917). The experiment in a line: SPR, immobilized 14-3-3η.
Assay [2] concerns the target 14-3-3ε (residues 1-255) (human) (UniProt P62258). The experiment in a line: SPR; 14-3-3 isoforms amine coupled to a CM5 chip, tandem peptides as analytes (10 µM-10 nM for PEAK3 tandem-pS69, 20 µM-20 nM for all others); Biacore S200, 20 °C, HBS-TP; steady state, 1:1 model.
Assay [3] addresses PEAK3 tandem-pS69 peptide (residues 54-74) (human). In words: ITC; binary; peptide in the cell (20 µM, or 16.8 µM after a buffer titration), protein in the syringe; 25 °C, 20 mM HEPES pH 7.4, 150 mM NaCl, 1 mM TCEP; single binding site model. On the technique in general: Isothermal titration calorimetry measures the heat released or taken up as one component is titrated into another.

For a further assay, the target named is 14-3-3γ (human). The experiment in a line: SPR; Biacore S200; 14-3-3 isoforms amine coupled to CM5, peptides injected (10 µM–10 nM for PEAK3^tandem-pS69, 20 µM–20 nM for other peptides); 20 °C, HBS-TP; steady-state 1:1 fit.
The target of assay [4] is PEAK1^IDR1 (residues 1082-1746), from insect cells (human) (UniProt Q9H792). In words: SPR; biotinylated PEAK proteins (with or without Src phosphorylation) captured with a biotin CAPture kit; Grb2 FL, Grb2 SH2, CrkII SH2, CrkII FL monomer or dimer as analytes; Biacore 8K+, 20 °C, HBS-TP with NaCl raised to 500 mM; 1 M NaCl regeneration; steady state.
In assay [5] the target is PEAK1^IDR1 (residues 1082-1746), from insect cells, phosphorylated by Src (human) (UniProt Q9H792). The assay is described as above.
Assay [6] has as its target 14-3-3γ (residues 1-247) (human). In words: SPR; 14-3-3 isoforms amine coupled to a CM5 chip, tandem peptides as analytes (10 µM-10 nM for PEAK3 tandem-pS69, 20 µM-20 nM for all others); Biacore S200, 20 °C, HBS-TP; steady state, 1:1 model.
Assay [7] addresses 14-3-3η (residues 1-246) (human). Described as above.
Assay [8] deals with PEAK2^IDR1 (human PEAK2 residues 802–1406) (human) (UniProt Q86YV5). In words: SEC-MALS; purified PEAK2^IDR1:CrkII^FL dimer complex (170 μg), Superdex 200 Increase 10/300, 20 mM HEPES pH 7.5, 150 mM NaCl, 1 mM TCEP. On the technique in general: SEC sorts molecules by how far they enter the pores of the column.
The target in assay [9] is full length CrkII, dimer (CrkII^FL dimer) (human) (UniProt P46108). The experiment in a line: SEC; single purified proteins on Superdex 200 (purification and re-runs), 20 mM HEPES pH 7.5–8.5, 150 mM NaCl, 1 mM TCEP; oligomeric state.
The target of assay [10] is full length PEAK3 (PEAK3^FL, residues 1-473), from insect cells, phosphorylated by Src (human) (UniProt Q6ZS72). In words: SPR; biotinylated PEAK proteins (with or without Src phosphorylation) captured with a biotin CAPture kit; Grb2 FL, Grb2 SH2, CrkII SH2, CrkII FL monomer or dimer as analytes; Biacore 8K+, 20 °C, HBS-TP with NaCl raised to 500 mM; 1 M NaCl regeneration; steady state.

Assay [11] concerns the target PEAK2^IDR1 (residues 802-1406), from insect cells, phosphorylated by Src (human) (UniProt Q86YV5). The description is as above.
Assay [12] concerns the target PEAK3^tandem-pS69 peptide (residues 54–74, phosphorylated at S69) (human). The experiment in a line: ITC; binary; peptide (20 μM) in the cell, protein in the syringe (14-3-3ɣ 200 μM; CrkII^NSH3 140 or 400 μM); 25 °C, 20 mM HEPES pH 7.4, 150 mM NaCl, 1 mM TCEP; single site model.
The target in assay [13] is PEAK3tandem-pS69 peptide (residues 54-74) (human). In words: ITC; 25 °C, peptide (20 µM) in the cell, protein in the syringe, sequential titrations; 20 mM HEPES pH 7.4, 150 mM NaCl, 1 mM TCEP; single binding site model.
For assay [14], the target named is PEAK3^(tandem, 54–74)pS69:14-3-3γ complex (human). In words: ITC; ternary, sequential; CrkII^NSH3 (400 μM, syringe) titrated into the peptide (16.8 µM) left in the cell after a first titration with 14-3-3ɣ; 25 °C, 20 mM HEPES pH 7.4, 150 mM NaCl, 1 mM TCEP.
In assay [15] the target is PEAK3 SH2-pY peptide 23-29 (Homo sapiens) (UniProt Q6ZS72). The experiment in a line: ITC. To be noted: cited from earlier work.
The target in assay [16] is PEAK3 tandem-pS69 : 14-3-3γ (K50E) complex (human). In words: ITC; ternary; CrkII NSH3 in the syringe titrated into the peptide:14-3-3γ complex left in the cell (16.8 µM) after the first titration; 25 °C, 20 mM HEPES pH 7.4, 150 mM NaCl, 1 mM TCEP; single binding site model.
[17] abbreviates: reference: non-phosphorylated PEAK1tandem peptide, sites T1165.
The mark [18] stands for this setting: reference: non-phosphorylated PEAK3tandem peptide, sites S69.

Sequence of 14-3-3ε (residues 1-255) (human) (P62258 whole entry, the tested form may be a part, canonical isoform): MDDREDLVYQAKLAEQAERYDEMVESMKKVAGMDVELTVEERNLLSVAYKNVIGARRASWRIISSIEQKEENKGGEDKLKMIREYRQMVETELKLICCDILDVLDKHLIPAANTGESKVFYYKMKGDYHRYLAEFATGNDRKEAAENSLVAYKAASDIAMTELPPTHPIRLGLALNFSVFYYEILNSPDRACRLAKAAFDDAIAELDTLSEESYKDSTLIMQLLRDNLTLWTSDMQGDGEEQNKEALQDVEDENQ
Sequence of PEAK1^IDR1 (residues 1082-1746), from insect cells, phosphorylated by Src (human) (Q9H792 1082-1746): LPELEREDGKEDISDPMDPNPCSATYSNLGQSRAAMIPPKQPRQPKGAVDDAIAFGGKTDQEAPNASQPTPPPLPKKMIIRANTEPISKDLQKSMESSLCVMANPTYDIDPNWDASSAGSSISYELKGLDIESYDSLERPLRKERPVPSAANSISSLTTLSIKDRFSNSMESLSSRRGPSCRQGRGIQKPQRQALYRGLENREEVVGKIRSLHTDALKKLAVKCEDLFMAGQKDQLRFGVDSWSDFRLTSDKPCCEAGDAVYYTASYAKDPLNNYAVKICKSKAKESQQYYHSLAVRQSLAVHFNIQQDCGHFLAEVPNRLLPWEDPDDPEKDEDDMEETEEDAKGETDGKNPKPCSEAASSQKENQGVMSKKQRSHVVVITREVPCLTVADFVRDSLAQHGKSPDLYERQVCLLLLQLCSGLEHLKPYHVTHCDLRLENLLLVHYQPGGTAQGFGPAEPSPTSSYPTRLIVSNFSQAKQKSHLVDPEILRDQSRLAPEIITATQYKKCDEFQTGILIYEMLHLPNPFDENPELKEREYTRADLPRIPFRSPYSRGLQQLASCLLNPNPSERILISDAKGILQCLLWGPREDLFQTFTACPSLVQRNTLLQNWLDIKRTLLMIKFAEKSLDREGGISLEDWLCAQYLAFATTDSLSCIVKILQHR
Sequence of PEAK2 tandem peptide, non-phosphorylated (residues 812-831) (peptide): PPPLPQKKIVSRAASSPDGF
Sequence of PEAK2^IDR1 (residues 802-1406), from insect cells, phosphorylated by Src (human) (Q86YV5 802-1406): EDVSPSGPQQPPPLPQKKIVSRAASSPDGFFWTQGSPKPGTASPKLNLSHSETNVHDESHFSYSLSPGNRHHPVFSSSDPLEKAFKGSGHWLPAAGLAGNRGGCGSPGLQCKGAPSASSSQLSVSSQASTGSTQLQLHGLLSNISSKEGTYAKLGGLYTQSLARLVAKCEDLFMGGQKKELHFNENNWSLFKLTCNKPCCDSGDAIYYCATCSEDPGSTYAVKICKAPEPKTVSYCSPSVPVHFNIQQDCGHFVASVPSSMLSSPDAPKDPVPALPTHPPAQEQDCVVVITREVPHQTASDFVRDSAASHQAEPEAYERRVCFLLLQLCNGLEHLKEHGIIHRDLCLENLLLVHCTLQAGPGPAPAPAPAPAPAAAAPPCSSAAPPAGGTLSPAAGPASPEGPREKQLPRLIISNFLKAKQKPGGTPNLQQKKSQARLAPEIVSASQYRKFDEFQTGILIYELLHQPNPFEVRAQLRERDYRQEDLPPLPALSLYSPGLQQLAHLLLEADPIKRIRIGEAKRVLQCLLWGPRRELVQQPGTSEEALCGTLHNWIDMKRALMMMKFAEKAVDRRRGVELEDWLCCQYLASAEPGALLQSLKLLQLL
Sequence of PEAK2^IDR1 (human PEAK2 residues 802–1406) (human) (Q86YV5 802-1406): as above
Sequence of PEAK1^IDR1 (residues 1082-1746), from insect cells (human) (Q9H792 1082-1746): as the sequence (Q9H792 1082-1746) above
Sequence of PEAK3 SH2-pY peptide 23-29 (Homo sapiens) (Q6ZS72 whole entry, looked up, tested part not stated): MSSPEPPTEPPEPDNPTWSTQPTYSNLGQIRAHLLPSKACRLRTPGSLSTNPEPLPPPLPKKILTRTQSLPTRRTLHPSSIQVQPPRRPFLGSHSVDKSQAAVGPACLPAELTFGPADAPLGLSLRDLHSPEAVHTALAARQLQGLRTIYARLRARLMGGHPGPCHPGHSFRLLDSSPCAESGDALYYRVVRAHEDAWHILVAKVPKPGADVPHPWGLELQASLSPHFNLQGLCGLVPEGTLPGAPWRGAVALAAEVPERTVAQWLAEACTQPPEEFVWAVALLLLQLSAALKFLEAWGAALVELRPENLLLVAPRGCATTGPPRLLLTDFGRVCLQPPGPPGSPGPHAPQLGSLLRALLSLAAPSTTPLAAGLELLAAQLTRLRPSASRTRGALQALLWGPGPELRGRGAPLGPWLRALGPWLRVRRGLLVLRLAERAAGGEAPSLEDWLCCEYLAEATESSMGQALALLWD
Sequence of full length PEAK3 (PEAK3^FL, residues 1-473), from insect cells, phosphorylated by Src (human) (Q6ZS72 whole entry, the tested form may be a part): as the sequence (Q6ZS72 whole entry, looked up, tested part not stated) above

For the substance “PEAK1 1152-1171 (from UniProt Q9H792) PEAK1tandem-pT1165 peptide”, the “binding against the reference” value (with 14-3-3γ 1-247; with 14-3-3ε 1-255 (setting [17]); in assay [1] (setting [17]); with 14-3-3η 1-246 (setting [17])) was “stronger” in each case.

Turning to “PEAK1 tandem peptide, non-phosphorylated (residues 1152-1171)”, in assay [2], the Kd (usually the equilibrium constant for the complex coming apart) was more than 100 µM.

The substance “PEAK3 tandem peptide, non-phosphorylated (residues 54-74)” came in with a Kd in [2] of more than 100 µM.

“PEAK3 tandem-pS69 peptide (residues 54-74)” yielded a Kd in assay [2] of 0.78 µM.

For “14-3-3γ (gamma) (K50E) (natural protein)”, in assay [3], the Kd was 5.99 µM and the stoichiometry N (usually the number of molecules, sites or subunits per partner or assembly) stood at 0.726.

The substance “PEAK3^tandem peptide, non-phosphorylated (residues 54–74; Ac-…-NH2)” displayed a Kd in the assay with 14-3-3γ (human) of more than 10 µM.

As for “PEAK1 tandem-pT1165 peptide (residues 1152-1171)”, in [2], the Kd turned out to be 5.39 µM.

With “full length Grb2 (Grb2^FL, residues 1-217) (from UniProt P62993-1 1-217) (natural protein)”, the dissociation constant Kd in assay [4] was more than 50 µM; in assay [5] it was 4.3 µM.

As for “PEAK2 tandem peptide, non-phosphorylated (residues 812-831)”, the dissociation constant (Kd) in [6], in [2] and in assay [7] was more than 100 µM throughout.

“full length CrkII, dimer (CrkII^FL dimer) (from UniProt P46108-1 1-304) (natural protein)” displayed a stoichiometry N (CrkII chains per PEAK2 chain (2:2)) in assay [8] of 1. The substance further returned a percent of the isolated protein that is dimer in assay [9] of 10%.

As to “CrkII SH2 domain (CrkII^SH2, residues 6-120) (from UniProt P46108-1 6-120) (domain or fragment)”, the Kd stood at 48 µM in assay [10], 12.5 µM in assay [5] and 21 µM in assay [11].

On to “PEAK3 54-74 (from UniProt Q6ZS72) PEAK3tandem-pS69 peptide”, for which the “binding against the reference” value (with 14-3-3ε 1-255 (setting [18]); in assay [1] (setting [18]); with 14-3-3η 1-246 (setting [18])) was “stronger” each time.

As for 14-3-3γ (natural protein), the Kd came to 0.13 µM in assay [12] and 0.126 µM in assay [13].

Turning to “CrkII NSH3 domain (CrkII^NSH3, residues 134–191) (from UniProt P46108-1 134-191) (domain or fragment)”, the Kd in [14] came out at 3.6 µM.

Regarding CrkII (from UniProt P46108), the Kd in assay [15] is 7.8 µM.

Consider “PEAK2 tandem-pS826 peptide (residues 812-831)”, for which the values for the Kd in assay [6], in [2] and in [7] were 1.35 µM, 7.42 µM and 1.94 µM, respectively.

In [16], “CrkII N-terminal SH3 domain (CrkII^NSH3, residues 134-191) (from UniProt P46108-1 134-191) (domain or fragment)” gave a Kd of 3.26 µM and a stoichiometry N of 0.69.
